The values that follow come from CN116041526A.

This assay addresses 重组蛋白SUMO-IgT CH1-CH2 (recombinant grass carp IgT heavy chain constant region CH1-CH2 domains fused to SUMO, from E. coli) (草鱼 (Ctenopharyngodon idella)). The assay is described as follows: titre of the antibody purified from ascites; assay not given, taken as ELISA on SUMO-IgT CH1-CH2.

B1: 鼠抗草鱼IgT单克隆抗体 (mouse anti-grass carp IgT monoclonal antibody, secreted by hybridoma cell line IgT-6H6G11, CCTCC NO: C202288) (antibody, IgG2a, V domains shown)
VH: QVQLVETGGGLVRPGNSLKLSCVTSGFTFSNYRMHWLRQPPGKRLEWIAVITVKSDNYRARYAESVKGRFTISRDDSKSSVYLQMNRLREEDTATYFCSREGPYYGNWVAMDYWGQGTSVTVSS
VL: DVVLTQSPATLSVTPGDRVSLSCRASQSISNYLHWYQQKSHESPRLLIKYASQSISGIPSRFSGSGSGTGFTLSINSVETEDFGMYFCQQSHSWPYTFGGGTKLEIK
Turning to B1, the 效价 (titre) (dilution (1:x)) came out at 64000.
